According to US12622945B2, “Hard tissue therapeutics” (OrthoTrophix, Inc., priority 2020, dated 2026):
Where no end group is shown, it is not given here.

What was measured:
[1] = system: subjects with knee OA; conditions: cited from earlier work
[2] = target: T1, integrin αvβ3 (Homo sapiens, UniProt P05106+P06756); test: Competition ELISA with biotinylated RGD-Knottin, integrin αvβ3; type: binding
T1 construct: purchased R&D Systems
Protocol: All integrins used in this study contained the human sequence.
The binding assay was conducted as a competition ELISA using biotinylated Knottin and unlabeled peptides.
Methods were carried out as follows, as described by Bernhagen 2017.
Incubation and washing buffers were prepared using standard protocols. Recombinant human integrins were purchased from R&D Systems (Minneapolis, U.S.A.). Strep-HRP (Streptavidin-Horseradish Peroxidase conjugate, Southern-Biotech, Birmingham, U.S.A.), and rabbit anti-mouse-HRP (Southern-Biotech, Birmingham, U.S.A.) were diluted 1:200-1:1000 for ELISA experiments.
All integrins were dissolved according to manufacturer's protocol and stored in 25 μL aliquots of 100 μg/mL in PBS. For coating of one 96 well plate, 2 aliquots were thawed and dissolved in 9.95 mL of cold coating buffer for a 0.5 μg/mL solution.
After coating, the plates were subsequently sealed and stored at 4° C. overnight. […]
The following washing and incubation steps were performed according to manuscript. […] Peptides, whose integrin binding strength were to be determined, were mixed in 12 different concentrations (each 3-fold dilutions) with a fixed concentration of RGD-Knottin (both in PBS, 15 min, room temperature), followed by incubation of the plates with peptide/RGD-Knottin solutions.
Substrate buffer incubation and absorbance measurements were identical to that for binding ELISA. […]

[3] = system: human and rat bone cells; conditions: human and rat/murine orthologues; cited from earlier work
[4] = target: T2, recombinant human integrin αvβ6 (human, UniProt P06756 31-992; P18564 22-707); test: competition ELISA with biotinylated RGD-Knottin on coated integrin
T2 construct: Bought from R&D Systems

[5] = target: T3, recombinant human integrin α1β1 (human, UniProt P56199 29-1141; P05556 21-728); test: as above
T3 construct: Bought from R&D Systems

[6] = target: T4, recombinant human integrin αvβ1 (human, UniProt P06756 31-992; P05556 21-728); test: as above
T4 construct: Bought from R&D Systems

[7] = target: T5, recombinant human integrin α2β1 (human, UniProt P17301 30-1132; P05556 21-728); test: as above
T5 construct: Bought from R&D Systems

[8] = target: T6, recombinant human integrin αvβ8 (human, UniProt P06756 31-992; P26012 43-684); test: as above
T6 construct: Bought from R&D Systems

[9] = target: T7, recombinant human integrin αvβ5 (human, UniProt P06756 31-992; P18084 24-719); test: as above
T7 construct: Bought from R&D Systems

[10] = target: T8, recombinant human integrin αvβ3 (human, UniProt P06756 31-992; P05106 27-718); test: competition ELISA; coated integrin, biotinylated RGD-Knottin as competitor
T8 construct: Bought from R&D Systems

[11] = target: T2, recombinant human integrin αvβ6; test: competition ELISA with Knottin; reference integrin αvβ3
[12] = target: T3, recombinant human integrin α1β1; test: as above
[13] = target: T4, recombinant human integrin αvβ1; test: as above
[14] = target: T5, recombinant human integrin α2β1; test: as above
[15] = target: T6, recombinant human integrin αvβ8; test: as above
[16] = target: T2, recombinant human integrin αvβ6; test: integrin binding screen / competition ELISA with RGD-Knottin
[17] = target: T3, recombinant human integrin α1β1; test: as above
[18] = target: T4, recombinant human integrin αvβ1; test: as above
[19] = target: T5, recombinant human integrin α2β1; test: as above
[20] = target: T6, recombinant human integrin αvβ8; test: as above
[21] = target: T9, recombinant human integrin α9β1 (human, UniProt Q13797 30-981; P05556 21-728, limits assumed); test: binding study with Knottin; reference integrin αvβ3
T9 construct: Bought from R&D Systems; Named only for the initial screening

[22] = target: T10, recombinant human integrin α6β1 (human, UniProt P23229 24-1011; P05556 21-728, limits assumed); test: as above
T10 construct: Bought from R&D Systems; Named only for the initial screening

[23] = target: T11, recombinant human integrin α4β1 (human, UniProt P13612 34-970; P05556 21-728, limits assumed); test: as above
T11 construct: Bought from R&D Systems; Named only for the initial screening

[24] = target: T12, recombinant human integrin α3β1 (human, UniProt P26006 33-991; P05556 21-728); test: as above
T12 construct: Bought from R&D Systems; Named only for the initial screening

[25] = target: T13, recombinant human integrin α5β1 (human, UniProt P08648 42-995; P05556 21-728); test: as above
T13 construct: Bought from R&D Systems; Named only for the initial screening

[26] = target: T14, recombinant human integrin α10β1 (human, UniProt O75578 23-1122; P05556 21-728, limits assumed); test: as above
T14 construct: Bought from R&D Systems; Named only for the initial screening

[27] = target: T9, recombinant human integrin α9β1; test: initial integrin binding screen
[28] = target: T10, recombinant human integrin α6β1; test: initial integrin binding screen
[29] = target: T11, recombinant human integrin α4β1; test: initial integrin binding screen
[30] = target: T12, recombinant human integrin α3β1; test: initial integrin binding screen
[31] = target: T13, recombinant human integrin α5β1; test: initial integrin binding screen
[32] = target: T14, recombinant human integrin α10β1; test: initial integrin binding screen
[33] = target: T8, recombinant human integrin αvβ3; test: competition ELISA; coated integrin, biotinylated RGD-Knottin as competitor (FIG. 2)
[34] = target: T8, recombinant human integrin αvβ3; test: competition ELISA; coated integrin, biotinylated RGD-Knottin as competitor (FIG. 4)

O=P(O)(O)C(O)(Cc1cccnc1)P(=O)(O)O [risedronate]
effects on pain ([1]; n=2483, Bingham 2006): favoring placebo over active drug

N#Cc1c(N(CC(=O)[O-])CC(=O)[O-])sc(C(=O)[O-])c1CC(=O)[O-].[Sr+2].[Sr+2] [strontium ranelate]
risk of myocardial infarction ([1]; in vivo): increase the risk of myocardial infarction

GFQDSLDSNRQDPGTDPEKGIDF-NH2 [SEQ ID No: 15]
binding affinity (IC50) of the peptide and integrin αvβ3 ([2]; peptide concentration giving 50% inhibition of biotinylated knottin binding, triplicate): no binding affinity within the limits of the binding assay | IC50 ([2]; read-out: binding affinity (IC50) of the peptide and integrin αvβ3): > 3.94 mM

PDLLVRGDNDVPPFSGDGQHFMH [SEQ ID No: 14]
biological activities in the bone cells of the other species [3]: interchangeably show biological activities in the bone cells of the other species

B1: scrambled peptide of SEQ ID No: 15 (peptide)
peptide: GFQDSLDSNRQDPGTDPEKGIDF-NH2
notes: Synthetic, made on a Rink-amide resin; also called scramble peptide
binding result [4]: no binding | binding result [5]: no binding | binding result [6]: no binding | binding result [7]: no binding | binding result [8]: no binding | binding result [9]: no binding

TDLQERGDNDISPFSGDGQPFKD-NH2 (also called human orthologue) [peptide of SEQ ID No: 10 (TPX-100)]
IC50 [10]: ~30 µg/mL | fold by which the binding affinity to αvβ3 is higher than to this integrin [11]: ≥ 300 times | fold by which the binding affinity to αvβ3 is higher than to this integrin [12]: ≥ 300 times | fold by which the binding affinity to αvβ3 is higher than to this integrin [13]: ≥ 300 times | fold by which the binding affinity to αvβ3 is higher than to this integrin [14]: ≥ 300 times | fold by which the binding affinity to αvβ3 is higher than to this integrin [15]: ≥ 300 times | binding result [16]: no binding | binding result [17]: no binding | binding result [18]: no binding | binding result [19]: no binding | binding result [20]: no binding | fold by which the binding affinity to αvβ3 is higher than to this integrin [21]: ≥ 300 times | fold by which the binding affinity to αvβ3 is higher than to this integrin [22]: ≥ 300 times | fold by which the binding affinity to αvβ3 is higher than to this integrin [23]: ≥ 300 times | fold by which the binding affinity to αvβ3 is higher than to this integrin [24]: ≥ 300 times | fold by which the binding affinity to αvβ3 is higher than to this integrin [25]: ≥ 300 times | fold by which the binding affinity to αvβ3 is higher than to this integrin [26]: ≥ 300 times | binding result [27]: no binding | binding result [28]: no binding | binding result [29]: no binding | binding result [30]: no binding | binding result [31]: no binding | binding result [32]: no binding | IC50 [33]: ~33 µg/mL

PDLQERGDNDISPFSGDGQPFKD-NH2 [peptide of SEQ ID No: 12 (canine orthologue of TPX-100)]
IC50 [34]: ~23 µg/mL | fold by which the binding affinity to αvβ3 is higher than to this integrin [11]: ≥ 300 times | fold by which the binding affinity to αvβ3 is higher than to this integrin [12]: ≥ 300 times | fold by which the binding affinity to αvβ3 is higher than to this integrin [13]: ≥ 300 times | fold by which the binding affinity to αvβ3 is higher than to this integrin [14]: ≥ 300 times | fold by which the binding affinity to αvβ3 is higher than to this integrin [15]: ≥ 300 times | fold by which the binding affinity to αvβ3 is higher than to this integrin [21]: ≥ 300 times | fold by which the binding affinity to αvβ3 is higher than to this integrin [22]: ≥ 300 times | fold by which the binding affinity to αvβ3 is higher than to this integrin [23]: ≥ 300 times | fold by which the binding affinity to αvβ3 is higher than to this integrin [24]: ≥ 300 times | fold by which the binding affinity to αvβ3 is higher than to this integrin [25]: ≥ 300 times | fold by which the binding affinity to αvβ3 is higher than to this integrin [26]: ≥ 300 times
